Assay results published in the nanobody polyreactivity screen of Harvey et al. (2022).

Assay: yeast display, Sf9 membrane polyspecificity reagent, FACS + sequencing; frameworks hold sequencing errors
How it was run: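 Sorting gates, low and high (top ~1%), were placed on anti-HA fluorescence to track expression and on streptavidin fluorescence to track reagent binding. A clone's polyreactivity label is taken from the gate it came out of. The reagent was 10% biotinylated, detergent-solubilized Sf9 membrane, applied for 1 hour at 4 °C to galactose-induced yeast display cells.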

Sequence: QVQLVESGGGLVQAGGSLRLSCAASGRIFLRNAMGWYRQAPGKERELVAGINSGGSTYYADSVKGRFTISRDNAKNTVYLQMNSLKPEDTAVYYCAADDGNFLSEDRDSYYGYDYWGQGTQVTVSS
- polyreactivity (PSR sort gate): low polyreactivity

Sequence: QVQLVESGGGLVQAGGSLRLSCAASGRIFLSYAMGWYRQAPGKERELVAGITWNGGSTYYADSVKGRFTISRDNAKNTVYLQMNSLKPEDTAVFYCAADYFGFSYAGYNYWGQGTQVTVSS
- polyreactivity (PSR sort gate): low polyreactivity

Sequence: QVQLVESGGGLVQAGGSLRLSCAASGRIFLSYAMGWYRQAPGKERELVAGITWNGGSTYYADSVKGRFTISRDNAKNTVYLQMNSLKPEDTAVYYCAATRFSYVFPYRYDYWGQGTQVTVSS
- polyreactivity (PSR sort gate): low polyreactivity

Sequence: QVQLVESGGGLVQAGGSLRLSCAASGRIFLTYAMGWYRQAPGKERELVAAITRRGGRTNYADSVKGRFTISRDNAKNTVYLQMNSLKPEDTAVYYCAKSPWPSHLDYDYWGQGTQVTVSS
- polyreactivity (PSR sort gate): low polyreactivity

Sequence: QVQLVESGGGLVQAGGSLRLSCAASGRIFLTYVMGWYRQAPGKERELVAAITSSGGTTYYADSVKGRFTISRDNAKNTVYLQMKSLKPEDTAVYYCNAGSSYQYGPRYNYWGQGTQVTVSS
- polyreactivity (PSR sort gate): low polyreactivity

Sequence: QVQLVESGGGLVQAGGSLRLSCAASGRIFLVYAMGRYRQAPGKERELVAAITSDGRTYYADSVKGRFTISRDNAKNTVYLQMNSLKPEDTAVYYCAADRYGAGYLYWPYDYWGQGTQVTVSS
- polyreactivity (PSR sort gate): low polyreactivity

Sequence: QVQLVESGGGLVQAGGSLRLSCAASGRIFLYNAMGSYRQAPGKVRELVASISSGVTTNYADSVKGRFTISRDNAKKTVYLQMNSLKPEDTAVYYCAADGQYSVIVKYDSWGQGTQVTVSS
- polyreactivity (PSR sort gate): low polyreactivity

Sequence: QVQLVESGGGLVQAGGSLRLSCAASGRIFLYNAMGWYRQAPGKERELVAAITASGGTTYYADSVKGRFTISRDNAKNTVYLQMNSLKPEDNAVYYCNAYSYSGERYYWGQGTQVTVSS
- polyreactivity (PSR sort gate): high polyreactivity

Sequence: QVQLVESGGGLVQAGGSLRLSCAASGRIFLYNVMGWYRQAPGKERELVAAISWSGTRTYYADSVKGRFTISRDNAKNTVYLQMNSLKPEDTAVYYCNACRYYRHDYWGQGTQVTVSS
- polyreactivity (PSR sort gate): low polyreactivity

Sequence: QVQLVESGGGLVQAGGSLRLSCAASGRIFLYYAMGWYRQAPGKERELVATISSGGSTTYADSVKGRFTISRDNAKNTVYLQMNSLKPEDTAVYYCATQVPGYSGRYDYWGQGTQVTVSS
- polyreactivity (PSR sort gate): low polyreactivity

Sequence: QVQLVESGGGLVQAGGSLRLSCAASGRIFLYYTMGWYRQAPGKERELVADITWRGGYTYYADSVKGRFTISRDNAKNTVYLQMNSLKPQDTAVYYFNAVSVSYKRSDYWGQGTQVTVSS
- polyreactivity (PSR sort gate): low polyreactivity

Sequence: QVQLVESGGGLVQAGGSLRLSCAASGRIFNAYAMGWYRQAPGKERELVAAITDDGGTNYADSVKGRFTISRDNAKNTVYLQMNSLKPEDTAVYYCAATYLIGYYYVWEYDYWGQGTQVTVSS
- polyreactivity (PSR sort gate): low polyreactivity

Sequence: QVQLVESGGGLVQAGGSLRLSCAASGRIFNAYAMGWYRQAPGKERELVATISWRTGSTYYADSVKGRFTISRDNAKNTVYLQINSLKPEDTAVYYCNAKVGSYGAQGYRFAYNYWGQGTQVTVSS
- polyreactivity (PSR sort gate): high polyreactivity

Sequence: QVQLVESGGGLVQAGGSLRLSCAASGRIFNDYTMGWYRPAPGKERELVAAITNRDTSTSYADSVKGRFTISRDNAKNTVYLQMNSLKPEDTAVYYCNAQQVIVVYRPGDYWGQGTQVTVSS
- polyreactivity (PSR sort gate): low polyreactivity

Sequence: QVQLVESGGGLVQAGGSLRLSCAASGRIFNFYAMGWYRQAPGKEWELVAAITNGGGTKYADSVKGRFTISRDNAKNTVYLQMNSLKPEDTAVYYCAARYYRRQRGQTSHSRFGYWGQGTQVTVSS
- polyreactivity (PSR sort gate): high polyreactivity

Sequence: QVQLVESGGGLVQAGGSLRLSCAASGRIFNIYAMGWYRQAPGKERELVAAISVSGTRTYYADSVKGRFTISRDNAKNTVYLQMNSLKPEDTAVYYCAADSYGGDWTEHMYYWGQGTQVTVSS
- polyreactivity (PSR sort gate): low polyreactivity

Sequence: QVQLVESGGGLVQAGGSLRLSCAASGRIFNKYVMGWYRQAPGKERELVAAISGRGGSTYYADYVKGRFTISRDNAKNTVYLQMNSLKPEDTAVYYCAARYGYYTSDYKYYDWGQGTQVTVSS
- polyreactivity (PSR sort gate): high polyreactivity

Sequence: QVQLVESGGGLVQAGGSLRLSCAASGRIFNPYAMGWYRKAPGKERELVAAISRGGRTYYADSVKGRFTISRDNAKNTVYLQMNSLKPEDTAVYYCAKLPSRRWAYDYWGQGTQVTVSS
- polyreactivity (PSR sort gate): high polyreactivity

Sequence: QVQLVESGGGLVQAGGSLRLSCAASGRIFNQYGMGWYRPAPGKERELVAAIRSGDSTNYADSVKGRFTISRDNAKNTVELQMNSLKPEDTAVYYCARDRPGDYAGYDYWGQGTQVTVSS
- polyreactivity (PSR sort gate): low polyreactivity

Sequence: QVQLVESGGGLVQAGGSLRLSCAASGRIFNQYGMGWYRPAPGKERELVAAIRYGDSTNYADSVKGRFTISRDNAKNTVYLQMNSLKPEDTAVYYCARDPAGDYAGYDYWGQGTQVTVSS
- polyreactivity (PSR sort gate): low polyreactivity

Sequence: QVQLVESGGGLVQAGGSLRLSCAASGRIFNRYAMGWYRQAPGKEREFVAGITWNGGSTYYADSVKGRFTISRDNAKNTVYLQMNSLKPEDTAVYYCAATHYYYGTSRYDYWGQGTQVTVSS
- polyreactivity (PSR sort gate): high polyreactivity

Sequence: QVQLVESGGGLVQAGGSLRLSCAASGRIFNSYAMGWSRQAPGNERELVAAISSGGSTYYADSVKGRFTISRDNAKNTVYLQMNSLKPEDTAVYYCAARIWTGRGRKLGYGYDYWGQGTQVTVSS
- polyreactivity (PSR sort gate): low polyreactivity

Sequence: QVQLVESGGGLVQAGGSLRLSCAASGRIFNVYAMGWYRPAPGTERELVAAIRRRGDRTYYADSVKGRFTLSRDNAKNTVYLQMNSLNPEDTADYYCAKSQSAKGGYDYWGQGTQVTVSS
- polyreactivity (PSR sort gate): high polyreactivity

Sequence: QVQLVESGGGLVQAGGSLRLSCAASGRIFNYNAMGWYRQAPGKERELVAAIDWSGGRTYYADSVKGRFTISRDNAKNTVYLQMNSLKPEDTAVYYCNTVGYSLRLRTGGYWGQGTQVTVSS
- polyreactivity (PSR sort gate): high polyreactivity

Sequence: QVQLVESGGGLVQAGGSLRLSCAASGRIFNYNAMGWYRQAPGKERELVATITRGGNTYYADSVKGRFTISRDNAKNTVYLQMNSLKPEDTAVYYCNAAWWKVSYVRQKYYYWGQGTQVTVSS
- polyreactivity (PSR sort gate): high polyreactivity

Sequence: QVQLVESGGGLVQAGGSLRLSCAASGRIFNYNAMGWYRQAPGKERELVATITYSDATTYYADSVKGRFTISRDNAKITVYLQMNSLKPEDTAVYYCNAPSRSYDRYISAGRRYDYWGQGTQVTVSS
- polyreactivity (PSR sort gate): low polyreactivity

Sequence: QVQLVESGGGLVQAGGSLRLSCAASGRIFNYNAMGWYRQAPGKERELVAVITSGDSTNYADSVKGRFTISRDNAKNTVYLQMNSLKPVDTAVYYCAAEYYSIRYGPNSIEVYGMDYWGQGTQVTVSS
- polyreactivity (PSR sort gate): low polyreactivity

Sequence: QVQLVESGGGLVQAGGSLRLSCAASGRIFPAYAMGWYRQAPGKERELVAAITWTGGRTYYADSVKGRFTISRDNAKNSFYLQMNILKPEDTAVYYCAKAPARSRGYEYWGQGTQVTVSS
- polyreactivity (PSR sort gate): low polyreactivity

Sequence: QVQLVESGGGLVQAGGSLRLSCAASGRIFPAYVMGWYRQAPVKERELVATIDNGGGTYYADSVKGRFTISRDNAKNTVYLQMNSLKPEDTAVYYCARDRHVRWGLKMDYWGLGTQVTVSS
- polyreactivity (PSR sort gate): low polyreactivity

Sequence: QVQLVESGGGLVQAGGSLRLSCAASGRIFPDNAMGWYRQAPGKERELVASITSGASTNYADSVKGRFTISRDNAKNTVYLQMNSLKPEDTAVYYCAAVTYAQYRRFDYWGQGTQVTVSS
- polyreactivity (PSR sort gate): high polyreactivity

Sequence: QVQLVESGGGLVQAGGSLRLSCAASGRIFPDYDMGWYRQAPGKERELVAAITQRGGSTYADSVKGRFTISRDNAKNTVYLQMNSLKPEDTAVYYCAREYYEGYEYWGQGTQVTVSS
- polyreactivity (PSR sort gate): low polyreactivity

Sequence: QVQLVESGGGLVQAGGSLRLSCAASGRIFPDYDMGWYRQAPGKERELVASISTRGGSTYADSVKGRFTISRDNAKNTVYLQMNSLKPEDTAVYYCATDGWKQSAYDYWGQGTQVTVSS
- polyreactivity (PSR sort gate): low polyreactivity

Sequence: QVQLVESGGGLVQAGGSLRLSCAASGRIFPEYTMGWYRQAPGKERELVAAISKRGSSTNYADSVKGRFTISRDNAKNTVYLQMNSLKPEDTAVYYCAARGYTLSYVDMYYWGQGTQVIVSS
- polyreactivity (PSR sort gate): high polyreactivity

Sequence: QVQLVESGGGLVQAGGSLRLSCAASGRIFPFNAMGWYRQAPGKERELVAAITSSGGRTYYADSVKGRFTISRDNAKNTVYLQMNSLKPEDTAVYYCAATLVRRARSGPMGYWGQGTQVTVSS
- polyreactivity (PSR sort gate): high polyreactivity

Sequence: QVQLVESGGGLVQAGGSLRLSCAASGRIFPFNAMGWYRQAPGKERELVAVITWDGGSTYYADSVKGRFTISRDNAKNTVYLQMNSLKPEDTAVYYCAADIRRYYPGYEYWGQGTQVTVSS
- polyreactivity (PSR sort gate): low polyreactivity

Sequence: QVQLVESGGGLVQAGGSLRLSCAASGRIFPFYAMGWYRPATWIQRELVAAITSSGGRTYYADSVKGRFTISRDIAKNTVYLQMNSLKPEETAVYYCAAGHGCYYRYFSQRDYWGQGTQVTVSS
- polyreactivity (PSR sort gate): low polyreactivity

Sequence: QVQLVESGGGLVQAGGSLRLSCAASGRIFPFYAMGWYRQAPGKERELVAAITSSGGRTYYADSVKGRFTISRDNAKNTVYLQMNSLKPEDTAVYYCAAGHGGYYRYFSQRDYWGQGTQVTVSS
- polyreactivity (PSR sort gate): low polyreactivity

Sequence: QVQLVESGGGLVQAGGSLRLSCAASGRIFPFYDMGWYRQAPGKERELVAAITSGTGTYYADSVKGRFTISRDNAKNTVYLQIYSLKPEDTAVYYCNARRYLRGYWGQGTQVTVSS
- polyreactivity (PSR sort gate): low polyreactivity

Sequence: QVQLVESGGGLVQAGGSLRLSCAASGRIFPFYVMGWDRQAPGKERELVATINWSGGSTYYADSVKGRFTISRDNAKNTLYLQMNSLKPEDTAVYYCNAAPSDDYDYWGQGTQVTVSS
- polyreactivity (PSR sort gate): low polyreactivity

Sequence: QVQLVESGGGLVQAGGSLRLSCAASGRIFPGNPMGWYRQAPGKERELVAGISFSGGRTYYADSVKGRFTISRDNAKNTVYLQMNSLKPEDTAVYYCAADAQAPPGGFKEYDYWGQGTQVTVSS
- polyreactivity (PSR sort gate): low polyreactivity

Sequence: QVQLVESGGGLVQAGGSLRLSCAASGRIFPGNTMGWYRQAPGKERELVAAITRGGSTSYADSVKGRFTISRDNAKNTVYLQMNSLKPEDTAVYYCATRTHGEGTRRDSWGQGTQVTVSS
- polyreactivity (PSR sort gate): low polyreactivity

Sequence: QVQLVESGGGLVQAGGSLRLSCAASGRIFPGYAMGWYRQAPGKERELVAAISGGGGRTYYADSVKGRFTISRDNAKNTVYLQMNSLKPEDTAVYYCAADTTPPRGFDYWGQGTQVTVSS
- polyreactivity (PSR sort gate): high polyreactivity

Sequence: QVQLVESGGGLVQAGGSLRLSCAASGRIFPHYSMGWYRQAPGKERELVAAISWSGSSTYYADSVKGRFTISRDNAKNTVYLQMNSLKPEDTAVYYCNAVRRGIGYDYGYWGQGTQVTVSS
- polyreactivity (PSR sort gate): high polyreactivity
